Results reported in patent US20090081760A1, “DMO METHODS AND COMPOSITIONS” (priority 2007, published 2009).

Tested on: Dicamba
Test: LC-MS/MS screen for oxygenase (DMO) activity: E. coli liquid culture expressing ddmC or a variant, grown with dicamba, DCSA detected in supernatant
Assay type: cell-based
Settings: for Changed to: M % of control for set / Changed to: M DCSA values (ppm): residue changed to M; for Changed to: C % of control for set / Changed to: C DCSA values (ppm): residue changed to C
Protocol: An LC-MS/MS screen for oxygenase activity was used to detect DCSA. The method comprises a two stage process made up of a liquid cell culture assay coupled to an LC-MS/MS detection screen. In the liquid cell culture stage, the gene of interest, i.e. ddmC or a variant thereof, was cloned under the control of a promoter (e.g. T7 promoter, pET vector) and transformed into an E. coli host cell. […] Cells were spun down, and the supernatant was filtered and diluted tenfold with the inclusion of 8 μM salicylic acid as an internal standard. Samples of the supernatant, and/or optionally the cell pellet (or lysate thereof), from this first stage were analyzed for DCSA levels (i.e. DMO activity level) by LC-MS/MS.
While many oxygenases such as DMO are multi component systems requiring other helper enzymes for activity, it was observed that components in E. coli may substitute for these helper enzymes or functions. Thus, transformation of E. coli with a single “oxygenase” gene from a multi component system nevertheless results in measurable activity for the gene alone, even without other components being co-transformed into the same E. coli cell. Activity is observed because, in E. coli cells, surrogates with homology to the original helper enzymes (e.g. ferredoxin and reductase) may be utilized. Additionally, E. coli can take up substrate (e.g. dicamba) and excrete the product (e.g. DCSA) into the media supernatant, allowing for the speed and simplicity of this cell based screen. No lysis of cells is required. Alternatively, an HPLC-based assay for DMO activity may be utilized. Promising variants were used as templates for additional rounds DOT and or other mutagenesis methods in an iterative manner. […]
Sets of saturation mutagenesis primers (using NNS degenerate triplets) for 31 residues at the active site and involved in the electron transfer chain as indicated in Table 28 were designed and used to introduce mutations into the ddmC gene by means of terminated PCR on the template (ddmC gene with His tag and two changes, T2S+I123L (SEQ ID NO:23) in pMV4 vector (Modular Genetics, Cambridge, Mass.). Resulting PCR products were treated with DpnI to remove the parental template molecules, self-annealed and transformed into chemically competent E. coli Top10 F′ (Invitrogen, Carlsbad, Calif.). Standard DNA cloning methods were utilized (e.g. Sambrook et al., 1989). The individual colonies were grown in liquid culture. DNA was isolated by a standard miniprep procedure and used to transform the chemically competent E. coli (e.g. BL21(DE3)). […] Cells were spun down, and the supernatant was filtered and diluted tenfold with 8 μM salicylic acid as an internal standard. The DCSA levels (i.e. DMO activity level) were determined by LC-MS analysis as described above (e.g. Example 8).
Additional single substitution variants of DMO at residues corresponding to interaction (e.g. subunit interface) domains and the ferredoxin binding site were also prepared and assayed for their effect on enzymatic activity (See also Examples 8A, 8B) by the LC/MS screen. In most cases shown in Table 29, one conservative and one neutral substitution was tried at a given residue.
Table 30 lists DMO activity data (by LC/MS screen) for 58 variants relative to ddmC_M—6his (the wild type ddmC sequence with an N-terminal His tag (SEQ ID NO: 154), while Table 31 lists DMO activity data (by LC/MS screen) for 1685 variants relative to ddmC_RLE6his (the wild type ddmC sequence with T2S and I123L mutations (SEQ ID NO:23), and a C-terminal 6×His tag). The numbering of residues is based on the numbering found in SEQ ID NO:2 or SEQ ID NO:3.

[1] = DCSA relative to control average of the data set

B1: G266S: DMO variant from NNS mutagenesis, more active than the control (protein)
chain: MATFVRNAWYVAALPEELSEKPLGRTILDTPLALYRQPDGVVAALLDICPHRFAPLSDGILVNGHLQCPYHGLEFDGGGQCVHNPHGNGARPASLNVRSFPVVERDALIWICPGDPALADPGAIPDFGCRVDPAYRTVGGYGHVDCNYKLLVDNLMDLGHAQYVHRANAQTDAFDRLEREVIVGDGEIQALMKIPGGTPSVLMAKFLRGANTPVDAWNDIRWNKVSAMLNFIAVAPEGTPKEQSIHSRGTHILTPETEASCHYFFSSSRNFGIDDPEMDGVLRSWQAQALVKEDKVVVEAIERRRAYVEANGIRPAMLSCDEAAVRVSREIEKLEQLEAARLEHHHHHH
- DMO activity of NNS mutagenesis variants (in words) (NNS saturation mutagenesis variants, 200 to 500 μM Dicamba, 30 hrs, 37° C.): more active than the control
- Changed to: S % of control for set (residue changed to S, DCSA relative to control average of the data set): 130.25%
- Changed to: S DCSA values (ppm) (residue changed to S, mean +/− SD (n)): 34.63 +/− 4.14 (4) ppm

B2: N218M: DMO substitution variant (protein)
chain: MATFVRNAWYVAALPEELSEKPLGRTILDTPLALYRQPDGVVAALLDICPHRFAPLSDGILVNGHLQCPYHGLEFDGGGQCVHNPHGNGARPASLNVRSFPVVERDALIWICPGDPALADPGAIPDFGCRVDPAYRTVGGYGHVDCNYKLLVDNLMDLGHAQYVHRANAQTDAFDRLEREVIVGDGEIQALMKIPGGTPSVLMAKFLRGANTPVDAWMDIRWNKVSAMLNFIAVAPEGTPKEQSIHSRGTHILTPETEASCHYFFGSSRNFGIDDPEMDGVLRSWQAQALVKEDKVVVEAIERRRAYVEANGIRPAMLSCDEAAVRVSREIEKLEQLEAARLEHHHHHH
- Changed to: M % of control for set [1]: 106.92%
- Changed to: M DCSA values (ppm) (mean +/− SD (n)): 40.87 +/− 0.62 (2) ppm

B3: A287M: DMO substitution variant (protein)
chain: MATFVRNAWYVAALPEELSEKPLGRTILDTPLALYRQPDGVVAALLDICPHRFAPLSDGILVNGHLQCPYHGLEFDGGGQCVHNPHGNGARPASLNVRSFPVVERDALIWICPGDPALADPGAIPDFGCRVDPAYRTVGGYGHVDCNYKLLVDNLMDLGHAQYVHRANAQTDAFDRLEREVIVGDGEIQALMKIPGGTPSVLMAKFLRGANTPVDAWNDIRWNKVSAMLNFIAVAPEGTPKEQSIHSRGTHILTPETEASCHYFFGSSRNFGIDDPEMDGVLRSWQMQALVKEDKVVVEAIERRRAYVEANGIRPAMLSCDEAAVRVSREIEKLEQLEAARLEHHHHHH
- Changed to: M % of control for set [1]: 149.32%
- Changed to: M DCSA values (ppm) (mean +/− SD (n)): 39.7 +/− 5.86 (4) ppm

B4: N218H: DMO substitution variant (protein)
chain: MATFVRNAWYVAALPEELSEKPLGRTILDTPLALYRQPDGVVAALLDICPHRFAPLSDGILVNGHLQCPYHGLEFDGGGQCVHNPHGNGARPASLNVRSFPVVERDALIWICPGDPALADPGAIPDFGCRVDPAYRTVGGYGHVDCNYKLLVDNLMDLGHAQYVHRANAQTDAFDRLEREVIVGDGEIQALMKIPGGTPSVLMAKFLRGANTPVDAWHDIRWNKVSAMLNFIAVAPEGTPKEQSIHSRGTHILTPETEASCHYFFGSSRNFGIDDPEMDGVLRSWQAQALVKEDKVVVEAIERRRAYVEANGIRPAMLSCDEAAVRVSREIEKLEQLEAARLEHHHHHH
- Changed to: H % of control for set (residue changed to H, DCSA relative to control average of the data set): 104.38%
- Changed to: H DCSA values (ppm) (residue changed to H, mean +/− SD (n)): 39.9 +/− 9.75 (4) ppm

B5: R248I: DMO substitution variant (protein)
chain: MATFVRNAWYVAALPEELSEKPLGRTILDTPLALYRQPDGVVAALLDICPHRFAPLSDGILVNGHLQCPYHGLEFDGGGQCVHNPHGNGARPASLNVRSFPVVERDALIWICPGDPALADPGAIPDFGCRVDPAYRTVGGYGHVDCNYKLLVDNLMDLGHAQYVHRANAQTDAFDRLEREVIVGDGEIQALMKIPGGTPSVLMAKFLRGANTPVDAWNDIRWNKVSAMLNFIAVAPEGTPKEQSIHSIGTHILTPETEASCHYFFGSSRNFGIDDPEMDGVLRSWQAQALVKEDKVVVEAIERRRAYVEANGIRPAMLSCDEAAVRVSREIEKLEQLEAARLEHHHHHH
- Changed to: I % of control for set (residue changed to I, DCSA relative to control average of the data set): 146.23%
- Changed to: I DCSA values (ppm) (residue changed to I, mean +/− SD (n)): 38.88 +/− 3.93 (4) ppm

B6: A287C: DMO substitution variant (protein)
chain: MATFVRNAWYVAALPEELSEKPLGRTILDTPLALYRQPDGVVAALLDICPHRFAPLSDGILVNGHLQCPYHGLEFDGGGQCVHNPHGNGARPASLNVRSFPVVERDALIWICPGDPALADPGAIPDFGCRVDPAYRTVGGYGHVDCNYKLLVDNLMDLGHAQYVHRANAQTDAFDRLEREVIVGDGEIQALMKIPGGTPSVLMAKFLRGANTPVDAWNDIRWNKVSAMLNFIAVAPEGTPKEQSIHSRGTHILTPETEASCHYFFGSSRNFGIDDPEMDGVLRSWQCQALVKEDKVVVEAIERRRAYVEANGIRPAMLSCDEAAVRVSREIEKLEQLEAARLEHHHHHH
- Changed to: C % of control for set [1]: 109.56%
- Changed to: C DCSA values (ppm) (mean +/− SD (n)): 29.13 +/− 5.46 (4) ppm

B7: A169M: DMO substitution variant (protein)
chain: MATFVRNAWYVAALPEELSEKPLGRTILDTPLALYRQPDGVVAALLDICPHRFAPLSDGILVNGHLQCPYHGLEFDGGGQCVHNPHGNGARPASLNVRSFPVVERDALIWICPGDPALADPGAIPDFGCRVDPAYRTVGGYGHVDCNYKLLVDNLMDLGHAQYVHRANMQTDAFDRLEREVIVGDGEIQALMKIPGGTPSVLMAKFLRGANTPVDAWNDIRWNKVSAMLNFIAVAPEGTPKEQSIHSRGTHILTPETEASCHYFFGSSRNFGIDDPEMDGVLRSWQAQALVKEDKVVVEAIERRRAYVEANGIRPAMLSCDEAAVRVSREIEKLEQLEAARLEHHHHHH
- Changed to: M % of control for set [1]: 108.70%
- Changed to: M DCSA values (ppm) (mean +/− SD (n)): 28.9 +/− 5.06 (4) ppm

B8: R248C: DMO substitution variant (protein)
chain: MATFVRNAWYVAALPEELSEKPLGRTILDTPLALYRQPDGVVAALLDICPHRFAPLSDGILVNGHLQCPYHGLEFDGGGQCVHNPHGNGARPASLNVRSFPVVERDALIWICPGDPALADPGAIPDFGCRVDPAYRTVGGYGHVDCNYKLLVDNLMDLGHAQYVHRANAQTDAFDRLEREVIVGDGEIQALMKIPGGTPSVLMAKFLRGANTPVDAWNDIRWNKVSAMLNFIAVAPEGTPKEQSIHSCGTHILTPETEASCHYFFGSSRNFGIDDPEMDGVLRSWQAQALVKEDKVVVEAIERRRAYVEANGIRPAMLSCDEAAVRVSREIEKLEQLEAARLEHHHHHH
- Changed to: C % of control for set [1]: 132.69%
- Changed to: C DCSA values (ppm) (mean +/− SD (n)): 35.28 +/− 12.15 (4) ppm

B9: A287E: DMO substitution variant (protein)
chain: MATFVRNAWYVAALPEELSEKPLGRTILDTPLALYRQPDGVVAALLDICPHRFAPLSDGILVNGHLQCPYHGLEFDGGGQCVHNPHGNGARPASLNVRSFPVVERDALIWICPGDPALADPGAIPDFGCRVDPAYRTVGGYGHVDCNYKLLVDNLMDLGHAQYVHRANAQTDAFDRLEREVIVGDGEIQALMKIPGGTPSVLMAKFLRGANTPVDAWNDIRWNKVSAMLNFIAVAPEGTPKEQSIHSRGTHILTPETEASCHYFFGSSRNFGIDDPEMDGVLRSWQEQALVKEDKVVVEAIERRRAYVEANGIRPAMLSCDEAAVRVSREIEKLEQLEAARLEHHHHHH
- Changed to: E % of control for set (residue changed to E, DCSA relative to control average of the data set): 113.40%
- Changed to: E DCSA values (ppm) (residue changed to E, mean +/− SD (n)): 30.15 +/− 2.76 (4) ppm
